T1: DME K1286Q (MBP-Δ537DME) (UniProt Q8LK56 SEQ:538-1729, K1286Q)
T1 sequence: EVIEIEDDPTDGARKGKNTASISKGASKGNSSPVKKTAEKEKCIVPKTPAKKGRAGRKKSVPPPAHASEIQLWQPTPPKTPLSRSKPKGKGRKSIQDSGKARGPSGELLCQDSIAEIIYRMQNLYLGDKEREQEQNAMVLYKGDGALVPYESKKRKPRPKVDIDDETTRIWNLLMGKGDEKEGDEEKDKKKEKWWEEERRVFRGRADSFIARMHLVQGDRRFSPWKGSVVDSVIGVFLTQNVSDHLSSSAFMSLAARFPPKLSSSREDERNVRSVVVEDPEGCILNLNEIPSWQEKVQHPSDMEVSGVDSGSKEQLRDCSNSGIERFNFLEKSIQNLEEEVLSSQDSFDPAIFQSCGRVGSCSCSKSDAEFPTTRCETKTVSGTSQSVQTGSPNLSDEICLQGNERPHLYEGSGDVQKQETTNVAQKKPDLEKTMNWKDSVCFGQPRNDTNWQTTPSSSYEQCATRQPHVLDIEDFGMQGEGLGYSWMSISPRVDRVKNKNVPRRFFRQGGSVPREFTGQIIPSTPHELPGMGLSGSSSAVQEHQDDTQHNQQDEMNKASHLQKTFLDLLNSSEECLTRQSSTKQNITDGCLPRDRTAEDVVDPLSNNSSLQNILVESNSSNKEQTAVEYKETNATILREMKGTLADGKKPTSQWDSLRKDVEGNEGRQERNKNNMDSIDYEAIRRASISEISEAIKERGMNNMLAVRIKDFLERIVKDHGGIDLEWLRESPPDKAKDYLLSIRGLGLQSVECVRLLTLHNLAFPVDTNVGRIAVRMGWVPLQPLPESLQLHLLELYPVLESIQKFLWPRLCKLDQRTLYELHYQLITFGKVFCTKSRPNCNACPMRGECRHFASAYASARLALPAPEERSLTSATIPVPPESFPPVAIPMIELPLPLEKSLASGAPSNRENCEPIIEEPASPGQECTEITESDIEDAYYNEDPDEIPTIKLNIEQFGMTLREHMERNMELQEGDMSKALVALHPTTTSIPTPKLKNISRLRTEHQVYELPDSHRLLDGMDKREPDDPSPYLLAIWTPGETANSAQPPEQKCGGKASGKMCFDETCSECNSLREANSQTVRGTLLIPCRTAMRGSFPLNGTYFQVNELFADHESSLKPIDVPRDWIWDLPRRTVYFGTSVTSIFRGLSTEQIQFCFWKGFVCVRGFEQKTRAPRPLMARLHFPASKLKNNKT

T2: DME D1304N (MBP-Δ537DME) (UniProt Q8LK56 SEQ:538-1729, D1304N)
T2 sequence: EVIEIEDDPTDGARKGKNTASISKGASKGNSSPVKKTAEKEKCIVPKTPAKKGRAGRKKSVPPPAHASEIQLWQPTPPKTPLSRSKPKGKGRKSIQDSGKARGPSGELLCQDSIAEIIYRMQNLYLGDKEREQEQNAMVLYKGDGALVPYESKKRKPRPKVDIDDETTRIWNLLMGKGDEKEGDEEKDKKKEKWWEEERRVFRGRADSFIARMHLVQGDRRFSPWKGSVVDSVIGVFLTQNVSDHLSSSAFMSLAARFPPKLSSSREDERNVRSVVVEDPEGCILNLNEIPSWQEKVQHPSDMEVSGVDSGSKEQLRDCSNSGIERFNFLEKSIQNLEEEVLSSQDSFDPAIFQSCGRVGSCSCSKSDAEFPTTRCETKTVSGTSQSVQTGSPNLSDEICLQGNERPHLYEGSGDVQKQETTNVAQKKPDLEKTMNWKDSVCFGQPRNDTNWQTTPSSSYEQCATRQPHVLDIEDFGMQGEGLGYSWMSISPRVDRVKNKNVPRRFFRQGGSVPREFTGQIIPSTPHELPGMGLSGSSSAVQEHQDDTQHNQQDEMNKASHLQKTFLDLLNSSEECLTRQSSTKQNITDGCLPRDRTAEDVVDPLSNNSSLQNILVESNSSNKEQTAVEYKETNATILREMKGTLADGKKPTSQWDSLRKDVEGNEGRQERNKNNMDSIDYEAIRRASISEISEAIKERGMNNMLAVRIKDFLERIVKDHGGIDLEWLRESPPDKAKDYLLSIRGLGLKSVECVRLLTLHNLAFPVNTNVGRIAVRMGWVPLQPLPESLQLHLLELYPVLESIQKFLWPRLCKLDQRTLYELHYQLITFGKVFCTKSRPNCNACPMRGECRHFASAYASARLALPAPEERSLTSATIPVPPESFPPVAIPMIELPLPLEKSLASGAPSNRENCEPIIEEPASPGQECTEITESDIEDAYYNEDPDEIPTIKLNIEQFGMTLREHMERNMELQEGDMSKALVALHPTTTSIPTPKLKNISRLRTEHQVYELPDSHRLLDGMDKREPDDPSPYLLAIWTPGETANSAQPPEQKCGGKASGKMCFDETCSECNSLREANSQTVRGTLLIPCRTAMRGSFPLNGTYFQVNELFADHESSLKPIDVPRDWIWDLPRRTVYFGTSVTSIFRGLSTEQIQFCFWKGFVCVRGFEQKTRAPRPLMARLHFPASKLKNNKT

T3: DME (MBP-Δ537DME, wild-type glycosylase domain) (UniProt Q8LK56 SEQ:538-1729)
T3 chain: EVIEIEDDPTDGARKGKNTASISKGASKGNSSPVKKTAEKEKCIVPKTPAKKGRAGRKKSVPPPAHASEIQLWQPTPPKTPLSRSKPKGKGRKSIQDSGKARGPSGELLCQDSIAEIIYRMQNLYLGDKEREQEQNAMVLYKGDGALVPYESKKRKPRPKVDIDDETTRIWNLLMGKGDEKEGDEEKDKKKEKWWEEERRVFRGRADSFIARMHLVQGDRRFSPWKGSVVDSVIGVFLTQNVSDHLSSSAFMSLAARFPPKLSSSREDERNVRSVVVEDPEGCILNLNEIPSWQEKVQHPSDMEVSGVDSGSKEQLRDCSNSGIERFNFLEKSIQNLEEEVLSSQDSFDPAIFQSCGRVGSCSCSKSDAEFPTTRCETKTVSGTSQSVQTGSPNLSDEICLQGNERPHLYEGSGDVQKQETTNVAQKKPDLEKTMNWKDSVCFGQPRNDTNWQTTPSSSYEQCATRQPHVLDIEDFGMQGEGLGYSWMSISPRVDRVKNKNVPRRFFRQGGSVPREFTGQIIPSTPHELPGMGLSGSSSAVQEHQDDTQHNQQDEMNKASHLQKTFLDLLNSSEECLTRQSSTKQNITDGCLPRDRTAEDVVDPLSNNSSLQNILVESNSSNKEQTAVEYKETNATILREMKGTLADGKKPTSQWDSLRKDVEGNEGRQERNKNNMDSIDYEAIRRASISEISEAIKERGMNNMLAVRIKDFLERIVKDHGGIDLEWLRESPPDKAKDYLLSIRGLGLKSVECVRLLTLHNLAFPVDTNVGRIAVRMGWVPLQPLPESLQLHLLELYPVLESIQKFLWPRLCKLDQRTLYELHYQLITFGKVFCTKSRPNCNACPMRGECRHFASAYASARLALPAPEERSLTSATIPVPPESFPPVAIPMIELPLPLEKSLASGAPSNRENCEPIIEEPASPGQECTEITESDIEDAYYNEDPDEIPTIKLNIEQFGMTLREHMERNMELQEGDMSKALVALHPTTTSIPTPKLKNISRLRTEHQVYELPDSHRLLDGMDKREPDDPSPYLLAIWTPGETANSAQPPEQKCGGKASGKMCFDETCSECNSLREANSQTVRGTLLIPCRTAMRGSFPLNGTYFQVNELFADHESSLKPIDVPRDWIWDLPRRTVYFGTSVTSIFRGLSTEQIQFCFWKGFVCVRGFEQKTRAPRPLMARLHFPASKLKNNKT


How the values were obtained:
DME K1286Q (MBP-Δ537DME) = biological target: T1, DME K1286Q (MBP-Δ537DME); assay: no trapping or lyase activity detected (catalytic mutant); details: tags: N-terminal MBP; label: 5'-32P top strand
Experimental: (§1) 5′-labeled oligonucleotide substrates (13.3 nM) were incubated with DME protein (250 nM) in a 15 μl reaction with 40 mM HEPES-KOH (pH 8.0), 0.1 M KCl, 0.1 mM EDTA, 0.5 mM dithiothreitol, and 200 μg/mL BSA at 37° for 1 hr. The reaction was terminated with 15 μl of 95% formamide, 20 mM EDTA, 0.05% bromophenol blue, 0.05% xylene cyanol FF and boiled for 5 min. To induce […], NaOH was added at a final concentration of 0.1 M and the reaction was boiled for 7 min. Products were fractionated on a 15% polyacrylamide gel containing 7.5 M urea and 1×TBE. Electrophoresis was done at 1000V for 4 hrs with a Hoefer SQ3 gel apparatus. The gel was exposed to Kodak BioMax MR film at −80°. Methods for purification of recombinant DME, oligonucleotide substrates, NaBH₄ trapping, and toxicity in E. coli are in the Supplemental Experimental Procedures.
(§2) 5′-labeled oligonucleotide substrates (13.3 nM) were incubated with DME protein (250 nM) in a 15 μl reaction with 40 mM HEPES-KOH (pH 8.0), 0.1 M KCl, 0.1 mM EDTA, 0.5 mM dithiothreitol, and 200 μg/mL BSA at 37°. After 1 hr of incubation, 1 M NaBH₄ was added to a final concentration of 100 mM and the reaction tubes were placed at 37° for an additional 10 min. An equal volume of 2×SDS-PAGE loading buffer (90 mM Tris-HCl, pH 6.8, 20% glycerol, 2% SDS, 0.02% bromophenol blue, 100 mM dithiothreitol) was added to terminate the trapping reaction. […]

DME D1304N (MBP-Δ537DME) = biological target: T2, DME D1304N (MBP-Δ537DME); assay: as above; details: tags: N-terminal MBP (pMAL-c2x); label: 5'-32P top strand
Experimental: as §1, §2

[1] = biological target: T3, DME (MBP-Δ537DME, wild-type glycosylase …); assay: NaBH4-trapped covalent complex (~200 kd); 40 mM HEPES-KOH pH 8.0, 0.1 M KCl, 37 C; details: tags: N-terminal MBP (pMAL-c2x), expressed in E. coli Rosetta; label: 5'-32P top strand
Source text: DME breaks the phosophodiester linkage on the 3′-side of a 5-methylcytosine residue (hemimethylated substrate) and generates end-labeled DNAs that migrate on denaturing polyacrylamide gels at the predicted position for β-elimination products (FIG. 3C). The subsequent cleavage of the phosphodiester linkage on the 5′-side yields δ-elimination products through the same mechanism found in related DNA glycosylases (Bhagwat, M. and Gerlt, J. A., Biochemistry, 35, 659-665 (1996)). Treatment of products with strong base (NaOH) prior to gel electrophoresis confirmed the δ-elimination process at the predicted position (FIG. 3C). […] No lyase activity (FIG. 3E) or covalent trapping (FIG. 3D) was detected when DME was incubated with non-methylated oligonucleotides, or when hemimethylated substrate was incubated with no enzyme or mutant enzymes (D1304N or K1286Q). Plants have 5-methylcytosine in the three sequence contexts; CpG, CpNpG, and CpNpN (Bender, J., Ann Rev Plant Biology, 55, 41-68 (2004)). DME has activity on 5-methylcytosine in each of these sequence contexts (FIG. 3E). We detected no DME activity when single-stranded oligonucleotides with 5-methylcytosine were used in the reaction (data not shown). […]

[2] = biological target: T3, DME (MBP-Δ537DME, wild-type glycosylase …); assay: NaBH4-trapped covalent complex; details: tags: N-terminal MBP (pMAL-c2x), expressed in E. coli Rosetta; label: 5'-32P top strand; T/G mismatch
Experimental: 5′-labeled oligonucleotide substrates (13.3 nM) were incubated with DME protein (250 nM) in a 15 μl reaction with 40 mM HEPES-KOH (pH 8.0), 0.1 M KCl, 0.1 mM EDTA, 0.5 mM dithiothreitol, and 200 μg/mL BSA at 37°. After 1 hr of incubation, 1 M NaBH₄ was added to a final concentration of 100 mM and the reaction tubes were placed at 37° for an additional 10 min. An equal volume of 2×SDS-PAGE loading buffer (90 mM Tris-HCl, pH 6.8, 20% glycerol, 2% SDS, 0.02% bromophenol blue, 100 mM dithiothreitol) was added to terminate the trapping reaction. Products were boiled for 10 min before loading onto a 10% SDS-PAGE gel. The wet gel was exposed to Kodak Biomax MS film for 12-18 h at −80°.

Row | Binder | binding result (DME K1286Q (MBP-Δ537DME)) | binding result (DME D1304N (MBP-Δ537DME)) | binding result [1] | binding result [2]
1 | hemimethylated meCpG (MEA-1.6F18meC / MEA-1.6R) (dsDNA, 5mC at position 18 of top strand [top 18 (5mC)]) DNA 1: CTATACCTCCTCAACTCCGGTCACCGTCTCCGGCG DNA 2: CGCCGGAGACGGTGACCGGAGTTGAGGAGGTATAG | no binding | no binding | binds | –
2 | T/G mismatch (MEA-1.6F18T / MEA-1.6R) (dsDNA) DNA 1: CTATACCTCCTCAACTCTGGTCACCGTCTCCGGCG DNA 2: CGCCGGAGACGGTGACCGGAGTTGAGGAGGTATAG | – | – | – | binds

— US20090305241, “DNA demethylases and uses thereof” (REGENTS OF THE UNIVERSITY OF CALIFORNIA, published 2009)
